# B1: CeLGR-ΔC (C. elegans leucine-rich-repeat-containing GPCR truncated after helix 8 at residue 712) (receptor)
# chain: QNALSLAQTKHSCMALKAEDGEGCTCKQTKRYGQPECCCMGLIVSQLPTNLTADVGYLYLHNTSISVITPNFFDKFPSIRELEIDNSAHLEHIDGSSLSVLSKLRKLSVVKCPNLREISGKLLVNNTRIQNVILKNNGLATMPSLRMTDAHHVLLDRIDLSGNKIKFISDSKVRNVKARTVVLSENKLIEISGYAFTESQFLKLKLNNNPDLRSLSVDAFKNMAGLQTLDLSHTSIDTLPINGLKKLKTLILNDVPTLKSLPSVLSFTDLETAHFTYPHHCCLFKYVDDVTMNDNGKYQRNAKEIHKRICDKREQQKVARRRKRETSGIDFLDMLLKEWTDNSTYTGPDDADDDELPPFVEIGAEPCQSIGEEVQKYYSNITCYPQPDALNPCENIVGYPFLRIAVWVVCLAAIVGNIIVWALLGIVYEKRMRMHYLYMINMSVADMVTGIYLAVLAIADAKMSDEYYRHAVWWQTGWGCRAAGFLAVFASELGIISMFLIAFEMSYNTRQSFRGRRLSPKVGVLLMIGGWLFAIIMAILPWFDVSSYSESSVCLPLRAATIFDKSYLIFGLSFNFLAFAAMALSYGFIVKMLKENETREEDRALITKMTVLVVTDLICWFPTLFFGFTATIGFPLLSLSSAKFVLVFFFPINAFANPFLYVFFTEVIQHRVRSKTLPVIRR
# Molecular target: the molecule itself
# Experiment: SEC
protein,measurement,value
B1,stoichiometry N,2
